This is an account of results in patent publication US20230212533A1, “PRODUCTS AND METHODS FOR THE TREATMENT OF NICOTINE DEPENDENCE” (THE REGENTS OF THE UNIVERSITY OF MICHIGAN, priority 2020, published 2023).

The experiment has as its target CycN cytochrome c protein (Pseudomonas putida S16) (Pseudomonas putida S16). Briefly: anaerobic stopped-flow spectrophotometry at 542 nm, 4 °C; NicA2-Flred mixed with excess CycNox; linear fit of first-phase kobs against CycNox concentration, said to report on the bimolecular association of the two proteins.

B1: NicA2 nicotine oxidoreductase (wild-type, Pseudomonas putida S16) (enzyme)
chain: TQKTNRASTVKGGFDYDVVVVGGGFAGATAARECGLQGYRTLLLEARSRLGGRTFTSRFAGQEIEFGGAWVHWLQPHVWAEMQRYGLGVVEDPLTNLDKTLIMYNDGSVESISPDEFGKNIRIAFEKLCHDAWEVFPRPHEPMFTERARELDKSSVLDRIKTLGLSRLQQAQINSYMALYAGETTDKFGLPGVLKLFACGGWNYDAFMDTETHYRIQGGTIGLINAMLTDSGAEVRMSVPVTAVEQVNGGVKIKTDDDEIITAGVVVMTVPLNTYKHIGFTPALSKGKQRFIKEGQLSKGAKLYVHVKQNLGRVFAFADEQQPLNWVQTHDYSDELGTILSITIARKETIDVNDRDAVTREVQKMFPGVEVLGTAAYDWTADPFSLGAWAAYGVGQLSRLKDLQAAEGRILFAGAETSNGWHANIDGAVESGLRAGREVKQLLS
B1 showed an association rate constant (kon) of 1.3e+06 M⁻¹ s⁻¹.

Broadly, the kon is the second-order rate constant of association. A high value points to fast association.
